The assay addresses Recombinant RbAp48 (human, UniProt Q09028 1-425). The experiment in a line: ITC; MTA1 peptide (250 uM) titrated into RbAp48 (25 uM); 25 C; 20 mM Tris pH 7.5, 150 mM NaCl; single-site model. To be noted: both partners purified.

The text below walks through data of paper PMC4139204 (The Journal of Biological Chemistry, 2014).

Chain of Recombinant RbAp48 (Q09028 whole entry): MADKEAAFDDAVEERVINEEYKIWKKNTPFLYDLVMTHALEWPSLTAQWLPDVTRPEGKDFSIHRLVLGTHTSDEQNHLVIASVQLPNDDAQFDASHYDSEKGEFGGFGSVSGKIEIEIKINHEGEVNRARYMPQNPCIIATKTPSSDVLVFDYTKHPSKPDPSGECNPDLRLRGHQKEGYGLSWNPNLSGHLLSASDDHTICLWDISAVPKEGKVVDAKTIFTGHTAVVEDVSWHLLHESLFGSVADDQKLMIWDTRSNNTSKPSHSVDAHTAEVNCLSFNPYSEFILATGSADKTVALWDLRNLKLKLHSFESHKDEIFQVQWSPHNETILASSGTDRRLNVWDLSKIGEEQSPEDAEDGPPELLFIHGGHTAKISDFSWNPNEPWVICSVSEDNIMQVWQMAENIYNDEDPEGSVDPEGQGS

Take Ac-DVFYMATEETRKIRKLLSSSETKRAARRPYK-NH2 (peptide, UniProt Q13330 656-686, looked up) [MTA1-(656-686) peptide]: the stoichiometry N (commonly the number of molecules, sites or subunits per partner or assembly) amounted to 1.

For the molecule Ac-KLLSSSETKRAARRPYKPIALRQSQA-NH2 (peptide, UniProt Q13330 670-695, looked up) [MTA1-(670-695) peptide], the equilibrium dissociation constant (Kd) (commonly the equilibrium constant for the complex coming apart) came to 50 nM and the “stoichiometry N” value stood at 1.

As to Ac-KLLSSSETKRAARRPYKPIALRQSQALPPRPPPPAPVNDEPI-NH2 (peptide, UniProt Q13330 670-711, looked up) [MTA1-(670-711) peptide], the “stoichiometry N” value worked out at 1.
